As a reminder, the stoichiometry N is a count of units in the complex or per binding partner.

The results in this text go back to article PMC11915506.

Like-named read-outs stand apart in the source and are kept apart here.

The target of assay [1] is Peltigera membranacea cyanobiont 210A (Pmc) TnsC (Peltigera membranacea cyanobiont 210A). In words: cryo-EM structure.
Assay [2] shares this target. As to the kind of experiment: cryo-EM structure. This is another data set of the same source.

As to “Peltigera membranacea cyanobiont 210A (Pmc) TnsC (natural protein)”, the stoichiometry N in assay [1] and in assay [2] was 7 each time.
